Test results as given in PMC4222909, “The Porphyromonas gingivalis Ferric Uptake Regulator Orthologue Binds Hemin and Regulates Hemin-Responsive Biofilm Development” (PLoS ONE, 2014).

Key:
[1] = target: T1, Zn(II)Har150 (Porphyromonas gingivalis ATCC 33277) (UniProt B2RKX7); experiment: EMSA
T1 sequence: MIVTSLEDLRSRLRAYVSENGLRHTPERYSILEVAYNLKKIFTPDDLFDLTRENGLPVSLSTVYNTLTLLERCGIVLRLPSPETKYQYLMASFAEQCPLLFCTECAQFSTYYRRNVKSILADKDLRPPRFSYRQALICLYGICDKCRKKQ

[2] = target: T1, Zn(II)Har150 (Porphyromonas gingivalis ATCC 33277); experiment: competition
SEC = target: the molecule itself; experiment: SEC

GGTGTTGATAACTCGGTCGCGCCTTGGTCGGCTTTCGTATAAGTGTCTGGAATGCAGTGGAATAGCGTTGTTTCCTTCGCTGTTTATATCTCAAGGTTATAACCATCTGAAAACAATATAGATACGATTCATCTGAATTATACTACACTTTTTGTCGATTGTTTTTTTACTCTTTTGTTTGAACCTTTGCTATCCCCAAAGGAGCAATGAACGACTGCTCTCAAAACGATATTTTTTTAG (double strand) [FAM-dnaA (PGN_0001) promoter]
binding [1]: binds

GGTGTTGATAACTCGGTCGCGCCTTGGTCGGCTTTCGTATAAGTGTCTGGAATGCAGTGGAATAGCGTTGTTTCCTTCGCTGTTTATATCTCAAGGTTATAACCATCTGAAAACAATATAGATACGATTCATCTGAATTATACTACACTTTTTGTCGATTGTTTTTTTACTCTTTTGTTTGAACCTTTGCTATCCCCAAAGGAGCAATGAACGACTGCTCTCAAAACGATATTTTTTTAG (double strand) [dnaA (PGN_0001) promoter 240 bp]
binding [1]: binds | binding [2]: binds

B1: Zn(II)Har, recombinant Porphyromonas gingivalis Har (heme associated regulator, Fur orthologue PGN_1503) (natural protein, Porphyromonas gingivalis ATCC 33277, UniProt B2RKX7 1-166, looked up)
chain: MIVTSLEDLRSRLRAYVSENGLRHTPERYSILEVAYNLKKIFTPDDLFDLTRENGLPVSLSTVYNTLTLLERCGIVLRLPSPETKYQYLMASFAEQCPLLFCTECAQFSTYYRRNVKSILADKDLRPPRFSYRQALICLYGICDKCRKKQSALKKAADKAAPKKKK
notes: Har (Fur family transcriptional regulator), P. gingivalis ATCC 33277, gene PGN_1503 (501 bp), full length; Factor Xa site (IEGR) immediately before the start of har; Measured mass of apo-Har 19157.46 Da fits the theoretical 19157.20 Da; also called PgHar; rHar; source: E. coli BL21(DE3), purified (GSTrap, on-column Factor Xa cleavage, cation exchange, size exclusion); not shown: GST, N-terminal, …
stoichiometry N (SEC): 2

B2: Zn(II)C97A, recombinant P. gingivalis Har with Cys97 substituted with Ala (natural protein)
chain: MIVTSLEDLRSRLRAYVSENGLRHTPERYSILEVAYNLKKIFTPDDLFDLTRENGLPVSLSTVYNTLTLLERCGIVLRLPSPETKYQYLMASFAEQAPLLFCTECAQFSTYYRRNVKSILADKDLRPPRFSYRQALICLYGICDKCRKKQSALKKAADKAAPKKKK
notes: also called HarC97A; source: E. coli BL21(DE3), purified (GSTrap, on-column Factor Xa cleavage, cation exchange, size exclusion); not shown: GST, N-terminal, cleaved
stoichiometry N (SEC): 2

B3: Zn(II)Har150, recombinant P. gingivalis Har truncated by 16 amino acids at the C-terminus (domain or fragment)
chain: MIVTSLEDLRSRLRAYVSENGLRHTPERYSILEVAYNLKKIFTPDDLFDLTRENGLPVSLSTVYNTLTLLERCGIVLRLPSPETKYQYLMASFAEQCPLLFCTECAQFSTYYRRNVKSILADKDLRPPRFSYRQALICLYGICDKCRKKQ
notes: source: E. coli BL21(DE3), purified (GSTrap, on-column Factor Xa cleavage, cation exchange, size exclusion); not shown: GST, N-terminal, cleaved
stoichiometry N (SEC): 2
